The target in test [1] is Immune sera of baboons immunized with UBI AD vaccine. Nature of the test: competitive inhibition ELISA. In general terms: An ELISA detects its analyte on a solid surface through an enzyme-linked reagent.
In test [2] the target is Serum samples collected at week 16 from patients immunized with UBI AD vaccine (UB-311). Nature of the test: comp. ELISA, serum P101.
For test [3] the target is unchanged. In words: comp. ELISA, serum P102.
For test [4] the target is unchanged. In words: comp. ELISA, serum P103.
Test [5] shares this target. Nature of the test: comp. ELISA, serum P104.
Test [6] shares this target. In words: comp. ELISA, serum P105.
Test [7] has the same target. In words: comp. ELISA, serum P106.
For test [8] the target is unchanged. In words: comp. ELISA, serum P107.
For test [9] the target is unchanged. Nature of the test: comp. ELISA, serum P108.
Test [10] shares this target. Nature of the test: comp. ELISA, serum P109.
For test [11] the target is unchanged. In words: comp. ELISA, serum P201.
Test [12] has the same target. Nature of the test: comp. ELISA, serum P202.
Test [13] has the same target. Nature of the test: comp. ELISA, serum P203.
Test [14] shares this target. Nature of the test: comp. ELISA, serum P204.
Test [15] shares this target. In words: comp. ELISA, serum P205.
For test [16] the target is unchanged. Nature of the test: comp. ELISA, serum P206.
Test [17] shares this target. In words: comp. ELISA, serum P207.
Test [18] has the same target. Nature of the test: comp. ELISA, serum P208.
Test [19] shares this target. Nature of the test: comp. ELISA, serum P209.
The target is the same in test [20]. In words: comp. ELISA, serum P210.

By % inhibition is commonly meant the relative decrease from the control value, in per cent.

Consider LVFFAEDVGSNKGAIIGLMVGGVVIA [Aβ17-42 (Aβ or APP 770 (L688-A713))], for which, in test [1], the % inhibition at 0 µg/mL worked out at 0%, the % inhibition at 0.25 µg/mL was 5%, the % inhibition at 0.5 µg/mL worked out at 9% and the % inhibition at 1 µg/mL is 10%. Besides, in [1], the % inhibition at 2 µg/mL was determined as 5%, the % inhibition at 8 µg/mL was 0% and the % inhibition at 32 µg/mL is 7%.

With ISEVKMDAEF [Aβ-6-4 or APP 770 (I666-F675)], the IC50-based peak height in test [2], in [3], in test [4], in test [5], in test [6] and in test [7] was 0 each time. In addition, the IC50-based peak height in [8], in test [9], in test [10], in test [11], in [12] and in [13] was 0 each time. The IC50-based peak height in test [14], in [15], in test [16], in test [17], in [18] and in test [19] was 0 in each case. In test [20], this molecule yielded an IC50-based peak height of 0.

TEEISEVKMD [Aβ-9-1 or APP 770 (T663-D672)]: the IC50-based peak height in [2], in [3], in test [4], in test [5], in [6] and in [7] was 0 each time. The IC50-based peak height in test [8], in [9], in test [10], in [11], in [12] and in [13] was 0 throughout. In addition, the IC50-based peak height in test [14], in test [15], in test [16], in [17], in [18] and in [19] was 0 throughout. In addition, in test [20], the IC50-based peak height amounted to 0.

Take EISEVKMDAE [Aβ-7-3 or APP 770 (E665-E674)]: the IC50-based peak height in test [2], in [3], in [4], in test [5], in test [6] and in test [7] was 0 in each case. Also, the IC50-based peak height in test [8], in test [9], in test [10], in [11], in test [12] and in test [13] was 0 throughout. The IC50-based peak height in [14], in test [15], in [16], in test [17], in [18] and in [19] was 0 each time. For the same molecule, the IC50-based peak height in test [20] came out at 0.

For the molecule SEVKMDAEFR [Aβ-5-5 or APP 770 (S667-R676)], the IC50-based peak height in [2] is 10; in test [3], 0; in test [4] it was 0; in [5], 0; in test [6] it was 0; in test [7], 0. In addition, the IC50-based peak height in test [8], in test [9], in test [10], in test [11], in [12] and in test [13] was 0 each time. For the same molecule, the IC50-based peak height in test [14], in [15], in test [16], in [17], in test [18] and in test [19] was 0 in each case. Moreover, the IC50-based peak height in [20] worked out at 0.

As for EVKMDAEFRH [Aβ-4-6 or APP 770 (E668-H677)], the IC50-based peak height in test [2] stood at 1; in [3], 0; in test [4], 0; in [5], 0; in test [6], 0; in [7], 0. Moreover, the IC50-based peak height in test [8] was found to be 0; in test [9], 0; in test [10] it was 0; in test [11], 58; in test [12] it was 0; in [13], 0. The IC50-based peak height in [14] is 0; in test [15], 0; in test [16], 0; in test [17], 1; in test [18] it was 0; in test [19], 0. The IC50-based peak height in test [20] was determined as 0.

Take RHDSGYEVHH [Aβ5-14 or APP 770 (R676-H685)]: the IC50-based peak height in test [2], in [3], in test [4], in test [5], in test [6] and in [7] was 0 each time. Moreover, the IC50-based peak height in [8], in test [9], in test [10], in test [11], in [12] and in test [13] was 0 in each case. Moreover, the IC50-based peak height in test [14], in test [15], in test [16], in test [17], in [18] and in test [19] was 0 each time. The IC50-based peak height in [20] is 0.

Turning to VKMDAEFRHD [Aβ-3-7 or APP 770 (V669-D678)], the IC50-based peak height in test [2] was 31; in [3], 0; in [4] it was 0; in test [5] it was 0; in [6] it was 0; in test [7], 0. Moreover, the IC50-based peak height in test [8], in test [9], in [10], in [11], in [12] and in test [13] was 0 throughout. For the same molecule, the IC50-based peak height in [14] turned out to be 1; in test [15], 0; in test [16], 0; in [17] it was 0; in [18] it was 0; in test [19] it was 0. In test [20], this molecule registered an IC50-based peak height of 13.

For the molecule EEISEVKMDA [Aβ-8-2 or APP 770 (E664-A673)], the IC50-based peak height in test [2], in [3], in test [4], in test [5], in [6] and in [7] was 0 each time. The IC50-based peak height in test [8], in test [9], in test [10], in test [11], in test [12] and in test [13] was 0 each time. In addition, the IC50-based peak height in test [14], in [15], in test [16], in test [17], in test [18] and in test [19] was 0 in each case. The same molecule returned an IC50-based peak height in [20] of 0.

The values are drawn from patent publication US20190194280A1.
